The text below walks through data of article PMC3807590.

The target of assay [1] is Chicken skeletal muscle α-actin (F-actin, unlabeled) (chicken) (UniProt P68139). Kind of assay: co-sedimentation; increasing tropomyosin (0-10 µM) mixed with 5 µM actin in F-buffer (2 mM HEPES, pH 7.6, 40 mM NaCl, 5 mM MgCl2) at 22°C, ultracentrifuged; supernatants and pellets on SDS-PAGE; apparent constants (Kapp).
Assay [2] shares this target.
For assay [3], the target named is Chicken skeletal muscle α-actin labeled with DABMI at Cys374 (chicken) (UniProt P68139).

With Ala232Cys-TM1b9a labeled with AEDANS, the Ka in assay [1] came out at 1.24e+07 M⁻¹.
For “Chicken skeletal myosin subfragment 1 (S1) (domain or fragment)”, in assay [2], the Actin–myosin S1 ATPase activity in the presence of TM1b9a/A232C; 0.8 µM S1, 9.2 µM F-actin, 1.2 µM tropomyosin (nmol Pi/mg S1/min) is 126; the Actin–myosin S1 ATPase activity in the presence of TM1b9a; 0.8 µM S1, 9.2 µM F-actin, 1.2 µM tropomyosin (nmol Pi/mg S1/min) worked out at 108; the Actin–myosin S1 ATPase activity in the presence of TM2/S269C; 0.8 µM S1, 9.2 µM F-actin, 1.2 µM tropomyosin (nmol Pi/mg S1/min) worked out at 112; the Actin–myosin S1 ATPase activity in the presence of TM2; 0.8 µM S1, 9.2 µM F-actin, 1.2 µM tropomyosin (nmol Pi/mg S1/min) worked out at 91.7. Moreover, in assay [2], the Actin–myosin S1 ATPase activity in the presence of TM5a/S232C; 0.8 µM S1, 9.2 µM F-actin, 1.2 µM tropomyosin (nmol Pi/mg S1/min) is 184; the Actin–myosin S1 ATPase activity in the presence of TM5a; 0.8 µM S1, 9.2 µM F-actin, 1.2 µM tropomyosin (nmol Pi/mg S1/min) came out at 169; the Actin–myosin S1 ATPase activity in the presence of skTM/A269C; 0.8 µM S1, 9.2 µM F-actin, 1.2 µM tropomyosin (nmol Pi/mg S1/min) was determined as 104; the Actin–myosin S1 ATPase activity in the presence of skTM; 0.8 µM S1, 9.2 µM F-actin, 1.2 µM tropomyosin (nmol Pi/mg S1/min) came to 103. In addition, in assay [3], the S1/actin molar ratio of strongly bound myosin heads required for half-maximal change in FRET between AEDANS-TM1b9a/A232C and DABMI-actin (S1/actin molar ratio) stood at 0.14; the S1/actin molar ratio of strongly bound myosin heads required for half-maximal change in FRET between AEDANS-TM2/S269C and DABMI-actin (S1/actin molar ratio) was 0.12; the S1/actin molar ratio of strongly bound myosin heads required for half-maximal change in FRET between AEDANS-TM5a/S232C and DABMI-actin (S1/actin molar ratio) worked out at 0.08; the S1/actin molar ratio of strongly bound myosin heads required for half-maximal change in FRET between AEDANS-skTM/A269C and DABMI-actin (S1/actin molar ratio) was determined as 0.15.
Consider Chimeric rat α-tropomyosin TM1b9a, for which the Ka in assay [1] was determined as 1.27e+07 M⁻¹.
The same measure, in the same setting: the result for “Recombinant rat non-muscle α-tropomyosin isoform TM2 (natural protein)” reads 2.25e+07 M⁻¹; that for “Recombinant rat non-muscle α-tropomyosin isoform TM5a (natural protein)”, 1.42e+07 M⁻¹.
In the case of “Ser232Cys-TM5a labeled with AEDANS (natural protein)”, the Ka in assay [1] worked out at 1.49e+07 M⁻¹.
With “Ser269Cys-TM2 labeled with AEDANS (natural protein)”, the Ka in assay [1] came out at 2.04e+07 M⁻¹.
